B1: Protein PTHB1 (Homo sapiens), Q3SYG4 (parent)
chain: MSLFKARDWWSTILGDKEEFDQGCLCLANVDNSGNGQDKIIVGSFMGYLRIFSPHPAKTGDGAQAEDLLLEVDLRDPVLQVEVGKFVSGTEMLHLAVLHSRKLCVYSVSGTLGNVEHGNQCQMKLMYEHNLQRTACNMTYGSFGGVKGRDLICIQSMDGMLMVFEQESYAFGRFLPGFLLPGPLAYSSRTDSFLTVSSCQQVESYKYQVLAFATDADKRQETEQQKLGSGKRLVVDWTLNIGEQALDICIVSFNQSASSVFVLGERNFFCLKDNGQIRFMKKLDWSPSCFLPYCSVSEGTINTLIGNHNNMLHIYQDVTLKWATQLPHIPVAVRVGCLHDLKGVIVTLSDDGHLQCSYLGTDPSLFQAPNVQSRELNYDELDVEMKELQKIIKDVNKSQGVWPMTEREDDLNVSVVVSPNFDSVSQATDVEVGTDLVPSVTVKVTLQNRVILQKAKLSVYVQPPLELTCDQFTFEFMTPDLTRTVSFSVYLKRSYTPSELEGNAVVSYSRPTDRNPDGIPRVIQCKFRLPLKLICLPGQPSKTASHKITIDTNKSPVSLLSLFPGFASQSDDDQVNVMGFHFLGGARITVLASKTSQRYRIQSEQFEDLWLITNELILRLQEYFEKQGVKDFACSFSGSIPLQEYFELIDHHFELRINGEKLEELLSERAVQFRAIQRRLLARFKDKTPAPLQHLDTLLDGTYKQVIALADAVEENQGNLFQSFTRLKSATHLVILLIALWQKLSADQVAILEAAFLPLQEDTQELGWEETVDAAISHLLKTCLSKSSKEQALNLNSQLNIPKDTSQLKKHITLLCDRLSKGGRLCLSTDAAAPQTMVMPGGCTTIPESDLEERSVEQDSTELFTNHRHLTAETPRPEVSPLQGVSE
partner: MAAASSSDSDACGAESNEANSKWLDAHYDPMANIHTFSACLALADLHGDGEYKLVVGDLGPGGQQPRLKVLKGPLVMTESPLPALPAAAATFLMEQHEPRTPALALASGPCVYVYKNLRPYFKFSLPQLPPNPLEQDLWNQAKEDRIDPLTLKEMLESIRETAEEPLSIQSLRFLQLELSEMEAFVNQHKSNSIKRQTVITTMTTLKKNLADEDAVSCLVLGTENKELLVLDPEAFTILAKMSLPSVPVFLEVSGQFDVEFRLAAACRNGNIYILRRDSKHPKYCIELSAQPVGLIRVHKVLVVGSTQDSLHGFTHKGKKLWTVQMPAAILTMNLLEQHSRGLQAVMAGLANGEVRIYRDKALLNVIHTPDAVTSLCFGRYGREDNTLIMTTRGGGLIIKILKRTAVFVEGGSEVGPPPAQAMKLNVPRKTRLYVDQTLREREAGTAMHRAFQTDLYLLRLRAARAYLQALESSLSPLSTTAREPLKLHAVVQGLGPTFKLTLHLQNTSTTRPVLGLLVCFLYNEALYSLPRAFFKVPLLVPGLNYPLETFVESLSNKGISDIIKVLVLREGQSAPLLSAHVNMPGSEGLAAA

Variants of: B1
Conditions: with bbs1_human BBS1, Q8NFJ9

Row | Variant | effect of a mutation on the interaction
1 | D762E | with no effect
2 | P834A | with no effect
3 | D571A | with no effect
4 | F684E | with no effect
5 | V577K | with no effect
6 | L465K | with no effect
7 | F864E | with no effect
8 | A832E | with no effect
9 | I617E | with no effect
10 | D850E | with no effect
11 | G538K | with no effect
12 | T697K | with no effect
13 | Q693K | with no effect
14 | G659K | with no effect
15 | V629E | with no effect
16 | L759E | with no effect
17 | L481E | with no effect
18 | N716E | with no effect
19 | Q597E | with no effect
20 | E607K | with no effect
21 | V879E | with no effect

Row | Variant | effect of a mutation on the interaction
22 | R679E | with no effect
23 | S486A | with no effect
24 | G565P | disrupting interaction strength
25 | L744A | with no effect
26 | L744K | with no effect
27 | C816K | with no effect
28 | G579A | with no effect
29 | N800K | with no effect
30 | E644A | with no effect
31 | A633E | with no effect
32 | Q748A | with no effect
33 | M837S | disrupting interaction strength
34 | Q524E | with no effect
35 | Q764K | with no effect
36 | D747A | with no effect
37 | G718K | with no effect
38 | P464A | with no effect
39 | S568E | with no effect
40 | K728E | with no effect
41 | F624K | with no effect
42 | R528K | with no effect

Row | Variant | effect of a mutation on the interaction
43 | R493E | with no effect
44 | M477A | with no effect
45 | S603A | with no effect
46 | R818A | with no effect
47 | L491A | with no effect
48 | V413A | with no effect
49 | L795E | with no effect
50 | T829A | with no effect
51 | F721K | with no effect
52 | F566E | with no effect
53 | F566A | with no effect
54 | D859A | with no effect
55 | G842A | with no effect
56 | G628A | with no effect
57 | Q672A | with no effect
58 | L851K | with no effect
59 | K547A | with no effect
60 | A831E | with no effect
61 | E654A | with no effect
62 | F487K | with no effect
63 | L665A | with no effect

Row | Variant | effect of a mutation on the interaction
64 | L784K | with no effect
65 | L793K | with no effect
66 | L793E | with no effect
67 | Q798K | with no effect
68 | L616K | with no effect
69 | Q602A | with no effect
70 | V575A | with no effect
71 | N553A | with no effect
72 | L457K | with no effect
73 | L467E | with no effect
74 | S667K | with no effect
75 | D700A | with no effect
76 | S414E | with no effect
77 | E660A | with no effect
78 | I612E | with no effect
79 | I612K | with no effect
80 | L583K | with no effect
81 | T473A | with no effect
82 | E475K | with no effect
83 | A710K | with no effect

Continued, values first:

Row | effect of a mutation on the interaction | Variant
84 | with no effect | S849K
85 | with no effect | S849E
86 | with no effect | V415K
87 | with no effect | L620K
88 | with no effect | N614E
89 | with no effect | Y645E
90 | with no effect | T725A
91 | with no effect | T725E
92 | with no effect | Q447K
93 | with no effect | Q722A
94 | with no effect | V577A
95 | with no effect | F527A
96 | with no effect | F527E
97 | with no effect | Y460A
98 | with no effect | H652A
99 | with no effect | H652E
100 | with no effect | N719K
101 | with no effect | E408K
102 | with no effect | Y495K
103 | with no effect | T595A
104 | with no effect | E873K
105 | with no effect | Q835K
106 | disrupting interaction strength | K554S
107 | with no effect | F632E
108 | with no effect | S635E

Row | effect of a mutation on the interaction | Variant
109 | with no effect | I735E
110 | with no effect | L819A
111 | with no effect | S486K
112 | with no effect | L591K
113 | with no effect | I534K
114 | with no effect | T763A
115 | with no effect | T763K
116 | disrupting interaction strength | T702C
117 | with no effect | D830A
118 | with no effect | S561A
119 | with no effect | V432K
120 | with no effect | D631E
121 | with no effect | T845E
122 | with no effect | M837E
123 | with no effect | L642A
124 | with no effect | S787A
125 | with no effect | L779A
126 | with no effect | V706K
127 | with no effect | V489K
128 | with no effect | P881A
129 | with no effect | I801A
130 | with no effect | S880E
131 | with no effect | P464E
132 | with no effect | H869E
133 | with no effect | D435E

Row | effect of a mutation on the interaction | Variant
134 | with no effect | R449E
135 | with no effect | F624E
136 | with no effect | P564K
137 | with no effect | Q742A
138 | with no effect | Q742E
139 | with no effect | D608K
140 | with no effect | C634E
141 | with no effect | L863E
142 | with no effect | T731A
143 | with no effect | T771A
144 | disrupting interaction strength | T771S
145 | with no effect | F636A
146 | with no effect | E790K
147 | with no effect | S603E
148 | with no effect | I676A
149 | with no effect | I548A
150 | with no effect | L531A
151 | disrupting interaction strength | P691S
152 | with no effect | P691E
153 | with no effect | D711A
154 | with no effect | L737A
155 | with no effect | G518K
156 | with no effect | G518E
157 | with no effect | S509E
158 | with no effect | D650E

Row | effect of a mutation on the interaction | Variant
159 | with no effect | S639E
160 | with no effect | F487E
161 | with no effect | F487A
162 | with no effect | D573E
163 | with no effect | T805E
164 | with no effect | F472E
165 | with no effect | T688E
166 | with no effect | L793A
167 | with no effect | S745E
168 | disrupting interaction strength | C469Y
169 | with no effect | I649A
170 | with no effect | P511E
171 | disrupting interaction strength | P840K
172 | with no effect | S418K
173 | with no effect | L752A
174 | with no effect | P689A
175 | with no effect | R521E
176 | with no effect | E625A
177 | with no effect | E853A
178 | with no effect | Q605E
179 | with no effect | P875A
180 | with no effect | M578K
181 | with no effect | L533A
182 | with no effect | V713A
183 | with no effect | N866A

Variants of: B1
Conditions: with bbs1_human BBS1, Q8NFJ9
Remark: another data set of the same source

Row | effect of a mutation on the interaction | Variant
184 | disrupting interaction strength | S745E
